The target of the data set is GST-Sox17 (mouse, UniProt Q61473 24-366). In words: EMSA. (In EMSA bound probe runs differently from free probe, usually more slowly.)
GST-Sox17, sequence (Q61473 24-366): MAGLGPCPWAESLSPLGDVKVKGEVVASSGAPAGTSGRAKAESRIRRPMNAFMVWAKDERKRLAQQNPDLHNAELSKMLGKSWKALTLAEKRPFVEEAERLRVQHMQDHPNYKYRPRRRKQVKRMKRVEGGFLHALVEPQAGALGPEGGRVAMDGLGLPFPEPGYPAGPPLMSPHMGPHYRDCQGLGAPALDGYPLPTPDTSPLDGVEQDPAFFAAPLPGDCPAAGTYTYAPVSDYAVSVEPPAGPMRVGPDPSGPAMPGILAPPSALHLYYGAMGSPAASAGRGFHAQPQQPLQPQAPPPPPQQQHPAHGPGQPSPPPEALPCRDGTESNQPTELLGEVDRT

For the molecule GCAGAACAATGGCGTTAGCTCGCCATTGTTCTG (structured_DNA) [SCS6], the binding result is recorded as “binds”.

These data come from paper PMC2120827.
